Laboratory results reported in the DeepSol protein solubility set.

Assay: soluble on expression in E. coli; label from the status in PepcDB or PDB records

Row | Sequence | soluble on expression in E. coli
1 | MHHHHHHSSGVDLGTENLYFQSMRPFLIGVSGGTASGKSTVCEKIMELLGQNEVEQRQRKVVILSQDRFYKVLTAEQKAKALKGQYNFDHPDAFDNDLMHRTLKNIVEGKTVEVPTYDFVTHSRLPETTVVYPADVVLFEGILVFYSQEIRDMFHLRLFVDTDSDVRLSRRVLRDVRRGRDLEQILTQYTTFVKPAFEEFCLPTKKYADVIIPRGVDNMVAINLIVQHIQDILNGDICKWHRGGS | soluble
2 | MEIKGESMQKSKFRRICVFCGSSQGKKSSYQDAAVDLGNELVSRNIDLVYGGGSIGLMGLVSQAVHDGGRHVIGIIPKTLMPRELTGETVGEVRAVADMHQRKAEMAKHSDAFIALPGGYGTLEELLEVITWAQLGIHDKPVGLLNVDGYYNSLLSFIDKAVEEGFISPTAREIIVSAPTAKELVKKLEEYAPCHERVATKLCWEMERIGYSSEE | soluble
3 | MESPIELAPDYYLENFFKLTHHAVTWYSDLLTEEEHAWLCSFDSLNKHAQCLLVRLYSRKGCWFRSDKLNYQEIPLIDAALAELGGQDFISLSPPLSHQEVAANLLTKPEISALYPELPKSLKKDALVERLSNTEFDRVEQLEFTIVRLNSAHMIDVLLTLFFANTHQDLSQFVLDDLGLHQFEQYQLSKVRRFFNSREQIDRLIELSQLANLYWQFDRKDKANLDLLIEAMPHPVHHPYVDRKREHMLNDIARDYERIDELETALSLFGQTQLTPSRERRARIYDKLNHDDLFSDIVTEMLHSPIDVSELEVAQKLEQRLKRKQGEKVPRVTKPTCMEYRVELDLSQQRVELASKAHFESLGWSVFYAENALLNALLGLTFWDAIFAPIEGAFINAYQHRPLDLYHSDFVAKRQALIDEAFAQLKLGNTQAILTKYDEKFGISNPFVQWSLIGKELLEQSLNTIPTRTLLELFKVQLSDLKLYRNGMPDLIAFRDNEFEWIEVKGPGDKLQDNQWRWIKEFSRLNVPFAVCYVTARKEDEKRVD | not soluble
4 | MFNKVIMVGRLTRNVELKYLPSGSAAATIGLATSRRFKKQDGTLGEEVCFIDARLFGRTAEIANQYLSKGSSVLIEGRLTYESWMDQTGKKNSRHTITADSLQFMDKKSDNPQANAMQDSIMHENSNNAYPANH | soluble
5 | MISAHVWADAQRLWDFQQMGHEPHPCSVAIGLGSHDLGVAETTAELYHRGMAPVIVFTGATSRTTHERMPRGEAEHYRERAVELGVPERAILVEPNARNTGENIRLSRALLEDLGMPVTSVLLVSKPYEERRAYATARKLWPNVEWVCVSTSMTLPDYVKSIGDARLVIDMLVGAQQRLMVYPRQGFMIKQEIPEPIMTAYEHLRGHGFTSRLVPETAEQTLEHHHHHH | soluble
6 | MKEVKRPVVSVVVPVYNTEPFLAECLHSLEKQTLTDIEIILVNDGSTDNSGRLLREYAGKDARFVYVEQENQGLSAARNTGMEHASGHYLAFLDSDDWLAENALQVLCAIAAKTRTDIVSGNTLAVHADGQVQSWERRGRELFATGTVVSGSTYFSRVMDCRCYVPMVYNYLYRRDFIEQNGFRFEPGLVHEDELWTPQVLTTAQKITVADIDFYYYRQREGSIMTATAAGRRIASIQLIIEKLLEYSRKHLFEKKYREAKEALYVRLLQIYSTACTLHPDGTYTTLYDRAGEMLRVCEELRRQESLGRWYSEEILNRMKLYYDRLQTMEG | not soluble
7 | MRATTIEEPARQVPLYGEYEVVVLGGGPAGIIAAASAARAGRKTLLIERYGFLGGMGTAAGVTNFCGLHGNVYGQAHRLVQGLASELLARIDLLNGLNTPHLILGKVFAQAYDTAAYKIAADELLASHKVNILFHALGAGVVMGDNSRIDALMVETKAGRQAVRSEIFIDCSGDGDLAVWAGAPFEVGDEHGHPLYPSMMLRLNNIDPEKAGEAWRTIPQLMEKALAAGTHKFPRKSAIVRPQKSGIEWRVNFTQVAREDGHAINGIEPDDLTRGEIEGRRQALAAFEFLRTVPGFEKSYIVDLPPQLGIRETRRIKGGYQLSGEDVLGCASFEDSIGVNGWPIEAHVPGDVIFTFPPIPESRGYNELPYRMLVPEGVDNLLVAGRCASMTHEGQSAARVSGACFVMGEAAGSAAALALSGNRIPRDIPIEKLQETLKQQGAFIGRDQPVPEGLLEHHHHHH | not soluble
8 | SLRILPQEPVIREEQNWLTILKNAISDPKLLLKALNLPEDDFEQSIAARKLFSLRVPQPFIDKIEKGNPQDPLFLQVMCSDLEFVQAEGFSTDPLEEKNANAVPNILHKYRNRLLFMAKGGCAVNCRYCFRRHFPYDENPGNKKSWQLALDYIAAHSEIEEVIFSGGDPLMAKDHELAWLIKHLENIPHLQRLRIHTRLPVVIPQRITDEFCTLLAETRLQTVMVTHINHPNEIDQIFAHAMQKLNAVNVTLLNQSVLLKGVNDDAQILKILSDKLFQTGILPYYLHLLDKVQGASHFLISDIEAMQIYKTLQSLTSGYLVPKLAREIAGEPNKTLYAE | soluble
9 | SEDCCMLPYYTAQSSPAMGMFNTSMGKLQRQLYKGEYTIFRYAPMFESDFIQISKRGEVIDVHNRARMVTMGIVRTSPCLTLPDVMLLARPAAVCDNARCGPATQKRESPPAEILELTRLLPLMFVKITIHNSVKKQLHLKLATGRSFYLQLCPPSDASEDLFVHWENLVYILRPPVEAYSDTRAILAGNTLDSSVLEEVQRSPVGYAMKFCEEKEQFRISRLHMNAEMFGSTYCDYTIEI | soluble
10 | MGSDKIHHHHHHAQTDSMLIRPTVDKRVELLSIIFRLTGNPEYNRNDFKLYTDRIESHFSPYKNHELISFARSLVKTDGVSYDAVMSMAINLDNQFNLPADYGSLDSRWNRNQVGPFIKLLKKFVKDSRFDAFYHSNENLYQEAVSRFMPIYKSIDTQWYNDFYGQKSNDRFHIILSMSNGPGNYGPSVTDKENVHNVFSVMGAWVTDSVGMVVYPPELILPILIHEFNHSFINFDPEMFRTSGEQIYAAVGEQMARQAYGQWSIVLTEAMVRAAVIKYMKDHNFPAVEITKETVIQKTRGFVWISKLVDELEKYSSDRTTYPTLNSYMPRLAEAYTGFAQYTANYDSIRPKVVSIDEFTNGDTTVRSDIKTITVHFDRPLVGRGHSFNYGHLGMEAMPKIINVNYANDNRTVIIGVELLPGKEYGITLLGLSFRTPEGDAIKPYEISFKTAE | not soluble
11 | MQSLTTALENLLRHLSQEIPATPGIRVIDIPFPLKDAFDALSWLASQQTYPQFYWQQRNGDEEAVVLGAITRFTSLDQAQRFLRQHPEHADLRIWGLNAFDPSQGNLLLPRLEWRRCGGKATLRLTLFSESSLQHDAIQAKEFIATLVSIKPLPGLHLTTTREQHWPDKTGWTQLIELATKTIAEGELDKVVLARATDLHFASPVNAAAMMAASRRLNLNCYHFYMAFDGENAFLGSSPERLWRRRDKALRTEALAGTVANNPDDKQAQQLGEWLMADDKNQRENMLVVEDICQRLQADTQTLDVLPPQVLRLRKVQHLRRCIWTSLNKADDVICLHQLQPTAAVAGLPRDLARQFIARHEPFTREWYAGSAGYLSLQQSEFCVSLRSAKISGNVVRLYAGAGIVRGSDPEQEWQEIDNKAAGLRTLLQME | soluble
12 | MKIGDVEVRDDVFNVKVKKHVLWEVVKWQLAKRRQGTHSTKTRGEVAYSGRKILPQKGTGNARHGERGVNIFVGGGVAHGPKPRDYEYPLPKRVRKLGLKMALSDKARNNAIIFVDNIDLGKKPKTKKAIEFLKNLGVEKEKVLVVIPEKADVLYKSFRNLPNVRVLLPEGLNVYDVLWANKLVIQKDCLDRIYKKVEA | soluble
13 | QVKDFVIEPPIKNNLHIYKTFGVFGGKEYSANSMYLVTKKGVVLFDVPWEKVQYQSLMDTIKKRHNLPVVAVFATHSHDDRAGDLSFFNNKGIKTYATAKTNEFLKKDGKATSTEIIKTGKPYRIGGEEFVVDFLGEGHTADNVVVWFPKYNVLDGGCLVKSNSATDLGYIKEANVEQWPKTINKLKAKYSKATLIIPGHDEWKGGGHVEHTLELLNKK | soluble
14 | MGKSLTEIAEELKGNDKKVQLIYAFNGTGKTRLSREFKNLIAPTSSEEPDGEPTRRKFLYYNAFTEDLFFWDNDLLANEAPRLKIQKNSFTDWLLRDNGLDGAVIKNFQYYTDDKLTPDFNDDFSEIAFYFARGNDEQIENIKISKGEESNFIWSIFYVLIRQVIAELNIPEDSEEGRSTDQFDDLEYIFIDDPVSSLDENHLIQQAVDLADLIKLSKPRLKFIITTHNVLFYNVLYNELKKLEKEKKSYLLLKNEDGSFDILEKQGDSNKSFSYHLHLKGVIEKAIENQQVERFHFMLLRNLYEKTANFLGYKQRSDILPEDSRRNYFQRIINFTSHSTLSNEAFAEPTPQEQETVKLLLQHLLDNYNFFQDDEQRDKP | not soluble
15 | MGHHHHHHSHRLSPRDEYKPLDLSDSTLSYTETEATNSLITAPGEFSDASMSPDATKPSHWCSVAYWEHRTRVGRLYAVYDQAVSIFYDLPQGSGFCLGQLNLEQRSESVRRTRSKIGFGILLSKEPDGVWAYNRGEHPIFVNSPTLDAPGGRALVVRKVPPGYSIKVFDFERSGLQHAPEPDAADGPYDPNSVRISFAKGWGPCYSRQFITSCPCWLEILLNNPR | soluble
16 | MEGQSGRCKIVVVGDAECGKTALLQVFAKDAYPGSYVPTVFENYTASFEIDKRRIELNMWDTSGSSYYDNVRPLAYPDSDAVLICFDISRPETLDSVLKKWQGETQEFCPNAKVVLVGCKLDMRTDLATLRELSKQRLIPVTHEQGTVLAKQVGAVSYVECSSRSSERSVRDVFHVATVASLGRGHRQLRRTDSRRGMQRSAQLSGRPDRGNEGEIHKDRAKSCNLM | soluble
17 | MTIAILSTGDEIIHGDTLNTNAHYIAHALCSEGLPLGLQVACSDKENEIIDSLNFLTQHHDILILIGGLGPTKDDITRFALAKFTKEPLLQHADALDHIEKKANIAKISLNQGNLQQCLFPANARLFPNPYGTAMGCSYSWKGKVFILLPGPPRECLPMFNQDVLPLLLQTSRHSNK | not soluble
18 | MAQVFNFSSGPAMLPAEVLKLAQQELCDWHGLGTSVMEISHRGKEFIQVAEEAEQDFRDLLNIPSNYKVLFCHGGGRGQFAGVPLNLLGDKTTADYVDAGYWAASAIKEAKKYCAPQIIDAKITVDGKRAVKPMREWQLSDNAAYLHYCPNETIDGIAIDETPDFGPEVVVTADFSSTILSAPLDVSRYGVIYAGAQKNIGPAGLTLVIVREDLLGKAHESCPSILDYTVLNDNDSMFNTPPTFAWYLSGLVFKWLKAQGGVAAMHKINQQKAELLYGVIDNSDFYRNDVAQANRSRMNVPFQLADNTLDKVFLEESFAAGLHALKGHRVVGGMRASIYNAMPIEGVKALTDFMIDFERRHG | not soluble
19 | METSMITELKSVRDIWKKMPSERHARIFLEEMIWPSGRHCPHCGSLSSTPIRGRTARPGLYQCAERECCLQFTVTTKTPMHATKLDLRIWIAAIFLMLTSSKGISSVVMARILGVNQKTAWKLGHAIRELMDEREAVSARLAGVVEVDEAYVGGAPKFKKGVKNKRGRGTGKPMVLVAADRTGQAKATLIPNAKGATLGPIMKEWIDPSSALMTDSNTAYRKIGRSFASHHTVNHGKRQHSRPSKGAHINTVEAVNSQVQRALIGVYHRLGRQHLQRYLDEILWQWNHRQQEVKIRNRKTSSGTKTIATRVWKPIPVVDQMRGLLCCAVGRQLRRTPQWGLCWPIHLFEHKGTFA | soluble
20 | MSLDHPPLCVLLVDDDSLVLDSTTLLLEDLGHRVIRAASGAQALQCLEQHRDIQLMISDMAMPHMDGRQLAEAVRRLHPQLPIILASGYAQRQDGPVPELPRIFKPFSQAQLRDALAQVLAQSAEGHHHHHH | soluble
21 | MSDESNPPKVILLVEDSKADSRLVQEVLKTSTIDHELIILRDGLAAMAFLQQQGEYENSPRPNLILLDLNLPKKDGREVLAEIKQNPDLKRIPVVVLTTSHNEDDVIASYELHVNCYLTKSRNLKDLFKMVQGIESFWLETVTLPAAPG | soluble
